To fix the notation:
B1: CaPCNA (natural protein, Candida albicans, UniProt Q5AMN0 1-259, looked up)
chain: MLEGKFEEAALLKKVVEAIKDCVKKCNFNCSEHGITVQAVDDSRVLLVSLLIGQTSFSEYRCDRDVTLGIDLESFSKIIKSANNEDFLTLLAEDSPDQIMAILEEKQKEKISEYSLKLMDIDSEFLQIDDMEYDAVVNMPSSDFAKLVRDLKNLSESLRVVVTKDSVKFTSEGDSGSGSVILKPYTNLKNERESVTISLDDPVDLTFGLKYLNDIVKAATLSDVITIKLADKTPALFEFKMQSGGYLRFYLAPKFDDDE
notes: proliferating cell nuclear antigen (PCNA), Candida albicans; also called C. albicans PCNA; source: E. coli BL21-DE3, purified
B2: 29-mer ubz peptide of CaPolη (607-635) (peptide)
peptide: KTKKCSRCKLSVDDPVEHNDYHIAMDLSN
notes: also called wild-type ubz peptide; WT UBZ peptide; source: synthetic peptide (China peptides Co Ltd, 98% purity)
B3: CaPCNA-90 (P253A, K254A) (natural protein)
chain: MLEGKFEEAALLKKVVEAIKDCVKKCNFNCSEHGITVQAVDDSRVLLVSLLIGQTSFSEYRCDRDVTLGIDLESFSKIIKSANNEDFLTLLAEDSPDQIMAILEEKQKEKISEYSLKLMDIDSEFLQIDDMEYDAVVNMPSSDFAKLVRDLKNLSESLRVVVTKDSVKFTSEGDSGSGSVILKPYTNLKNERESVTISLDDPVDLTFGLKYLNDIVKAATLSDVITIKLADKTPALFEFKMQSGGYLRFYLAAAFDDDE
notes: source: E. coli BL21-DE3, purified
B4: ScPCNA (natural protein, Saccharomyces cerevisiae, UniProt P15873 1-258, looked up)
chain: MLEAKFEEASLFKRIIDGFKDCVQLVNFQCKEDGIIAQAVDDSRVLLVSLEIGVEAFQEYRCDHPVTLGMDLTSLSKILRCGNNTDTLTLIADNTPDSIILLFEDTKKDRIAEYSLKLMDIDADFLKIEELQYDSTLSLPSSEFSKIVRDLSQLSDSINIMITKETIKFVADGDIGSGSVIIKPFVDMEHPETSIKLEMDQPVDLTFGAKYLLDIIKGSSLSDRVGIRLSSEAPALFQFDLKSGFLQFFLAPKFNDEE
notes: proliferating cell nuclear antigen (PCNA), Saccharomyces cerevisiae; also called S. cerevisiae PCNA; source: E. coli BL21-DE3, purified

In data set [1] the test system is CaPCNA. The data set can be described thus: ITC binding to CaPCNA. More on the design: species or system Candida albicans. The settings on record: 25 °C, pH 7.4, CaPCNA injected, about 10 μM Polη mutant in cell, negatives repeated at various concentrations.
Description: To identify a region of CaPolη involved in PCNA interaction, we generated a deletion construct by inserting a stop codon at amino acid position 513 (K513) of CaPolη. […] The wild-type and truncated CaPolη were purified, and their interaction with CaPCNA was monitored by isothermal calorimetry (ITC) analysis. […] Since CaPolη functionally complements ScPolη and protects the fungal cells from UV-induced DNA damages ([17], [25], [26]), to further strengthen our finding, various Polη orfs were expressed under the constitutive ADH1 promoter in rad30Δ and rad30Δrev3Δ S. cerevisiae strains, and susceptibility to UV irradiation was determined.
To map the precise location of PCNA binding, another deletant CaPolη 1 to 601 aa was constructed that lacks the last 39 residues encompassing the ubz domain but retains Seq-3 and Seq-4 (Fig. 2A). […] To ascertain the function of ubz domain, two D626A and H624A, H628A of CaPolη mutants were generated and their ability to suppress UV sensitivity of Polη-deficient S. cerevisiae strains was examined. […] Similarly, UV-induced mutation rate was estimated by counting the number of canavanine-resistant colonies of various S. cerevisiae strains harboring CaPolη constructs. […] Subsequently, ITC and GST-pull-down assays were carried out to determine the role of ubz in PCNA binding.
Data set [2] concerns the molecule itself. Description: SEC; about 10 μg of purified CaPCNA and CaPolη (1:1 M ratio) incubated 60 min at room temperature, or CaPCNA alone; Superdex 200 PC3.2/30; 50 mM HEPES pH 7.5, 150 mM NaCl, 10% glycerol; 0.05 ml/min, 4 °C. On the technique in general: Size exclusion chromatography separates by hydrodynamic size, large species first.
Data set [3] concerns the target B2. Description: ITC; PCNA (200 μM, counted as a trimer) in the syringe, Polη (10 μM) or ubz peptide (20 μM) in the cell; 25 injections of 1.5 μl; 25 °C; 20 mM HEPES pH 7.4, 150 mM NaCl; single-site binding model. Conditions: both partners purified. (In general: In ITC the heat of successive injections is recorded.)
Data set [4] deals with wild-type CaPolη protein (1–640 aa) (Candida albicans). The description is as above.
For data set [5], the target named is B1. The data set is described as above. Conditions: both partners purified.
The data set “CaPCNA-90 (P253A, K254A)” concerns the target B3. The data set is described as above. Conditions: both partners purified.
In data set [6] the target is B4. The data set is described as above. Conditions: both partners purified.
The target in a further data set is T1, ScPolη (Saccharomyces cerevisiae, UniProt Q04049 1-632).
T1 construct: DNA polymerase eta (Rad30), Saccharomyces cerevisiae, 632 aa, wild type; also called ScRad30; S. cerevisiae DNA polymerase eta; source: purified
T1 sequence (looked up): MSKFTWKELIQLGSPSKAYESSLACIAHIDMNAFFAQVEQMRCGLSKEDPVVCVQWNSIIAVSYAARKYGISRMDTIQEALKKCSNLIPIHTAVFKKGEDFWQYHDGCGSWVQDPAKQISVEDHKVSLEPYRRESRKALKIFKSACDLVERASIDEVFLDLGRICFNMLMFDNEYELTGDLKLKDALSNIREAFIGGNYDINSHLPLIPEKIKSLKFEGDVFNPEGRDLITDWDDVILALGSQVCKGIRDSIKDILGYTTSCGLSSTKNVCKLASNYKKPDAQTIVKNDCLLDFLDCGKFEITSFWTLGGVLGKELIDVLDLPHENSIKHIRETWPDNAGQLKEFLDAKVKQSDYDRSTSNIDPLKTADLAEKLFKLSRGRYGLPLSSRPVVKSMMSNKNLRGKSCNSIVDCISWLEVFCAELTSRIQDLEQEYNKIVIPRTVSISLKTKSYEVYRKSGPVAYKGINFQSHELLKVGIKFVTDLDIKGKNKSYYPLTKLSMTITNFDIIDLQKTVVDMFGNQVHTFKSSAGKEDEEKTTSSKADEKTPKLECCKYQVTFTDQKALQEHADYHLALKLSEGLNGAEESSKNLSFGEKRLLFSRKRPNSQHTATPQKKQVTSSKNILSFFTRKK
The description is as above. The settings on record: both partners purified.

In data set [7] the target is T2, ScPCNA (Saccharomyces cerevisiae, UniProt P15873).
T2 construct: made in house; host or cells: E. coli BL21-DE3
T2 sequence (P15873 1-258): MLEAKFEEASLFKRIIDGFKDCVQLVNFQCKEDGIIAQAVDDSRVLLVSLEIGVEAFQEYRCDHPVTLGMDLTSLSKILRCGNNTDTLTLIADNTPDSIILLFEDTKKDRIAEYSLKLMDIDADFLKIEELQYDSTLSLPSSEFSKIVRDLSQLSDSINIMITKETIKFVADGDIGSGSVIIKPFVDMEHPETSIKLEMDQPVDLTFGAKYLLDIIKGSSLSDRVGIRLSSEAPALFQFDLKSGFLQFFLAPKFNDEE
Description: ITC binding to ScPCNA. Conditions: 25 °C. The text has this: To understand whether any sequence or structural differences of the ubz domains in these Polηs have an impact on functional differences, we used the solution structure of the ubz domain of human Polη as a template and determined the structure of the ubz domain of both Sc- and Ca-Polηs by computational modeling (Fig. 3A). […] The two cysteines are located on the fingertip made by the two β-strands, and the two histidines are located on the α-helix. […] Next we examined whether the ubz peptide can inhibit the binding of PCNA to Polη. An equimolar mixture of the ubz peptide and PCNA was injected into the calorimetric cell having CaPolη to examine the interference of peptide on the interaction between PCNA and Polη by ITC.
All the purified proteins and purchased peptides were dialyzed overnight against 1 l of a buffer containing 20 mM HEPES (pH 7.4) and 150 mM NaCl at 4 °C to ensure complete removal of DTT and glycerol from the protein storage buffer, which could affect the heat exchange while they interact. ITC assays were performed using a Malvern MicroCal PEAQ-ITC calorimeter. Before the experiment, the cell and the syringe were thoroughly washed with water, followed by cell rinsing with a buffer. A control run was carried out to make sure that the buffer is not participating in heat change where the cell was filled with 300 μl of a buffer and concentrated CaPCNA or ScPCNA protein (200 μM) in the syringe. ITC was performed using various Polηs or UBZ peptide or UBZ mutant peptide in the sample cell and CaPCNA or ScPCNA or a mixture of CaPCNA+ WT UBZ peptide in the syringe. Twenty-five injections of 1.5 μl of protein from the syringe were given at intervals of 120 s with an initial delay of 120 s at 25 °C. The data were analyzed to determine the various kinetic parameters using a single-site binding model provided in the ITC analysis software package.

As for “607-KTKKCSRCKLSVDDPVEANDYAIAMDLSN-635 [mutant peptide]”, the “Binding to CaPCNA by ITC (in words)” value with CaPCNA [1] was “did not show any sign of binding”.

As a reminder, the stoichiometry N is the number of molecules, sites or subunits per partner or assembly. One may read the Kd as the concentration at which binding is half-saturated. B1: the “stoichiometry N” value in [2] is 3. Moreover, in [3], the dH is -80 kcal/mol and the “stoichiometry N” value was 0.355. In [4], this molecule displayed a Kd of 7.15 µM, a dH of -22.1 kcal/mol and a stoichiometry N of 0.315.

Turning to B2, the Kd in the data set with CaPCNA [5] is 19.8 µM; with CaPCNA-90 (P253A, K254A), 39 µM; with ScPCNA [6], 15.6 µM.

As for B3, in data set [3], the dH is -79.9 kcal/mol and the “stoichiometry N” value amounted to 0.316.

With B4, in [3], the dH is -24.2 kcal/mol and the “stoichiometry N” value was determined as 0.34. Besides, in the data set with ScPolη, the Kd stood at 15.1 µM, the dH was -79.9 kcal/mol and the “stoichiometry N” value worked out at 0.31.

B5: ScPolη: Saccharomyces cerevisiae DNA polymerase eta (protein)
chain: MSKFTWKELIQLGSPSKAYESSLACIAHIDMNAFFAQVEQMRCGLSKEDPVVCVQWNSIIAVSYAARKYGISRMDTIQEALKKCSNLIPIHTAVFKKGEDFWQYHDGCGSWVQDPAKQISVEDHKVSLEPYRRESRKALKIFKSACDLVERASIDEVFLDLGRICFNMLMFDNEYELTGDLKLKDALSNIREAFIGGNYDINSHLPLIPEKIKSLKFEGDVFNPEGRDLITDWDDVILALGSQVCKGIRDSIKDILGYTTSCGLSSTKNVCKLASNYKKPDAQTIVKNDCLLDFLDCGKFEITSFWTLGGVLGKELIDVLDLPHENSIKHIRETWPDNAGQLKEFLDAKVKQSDYDRSTSNIDPLKTADLAEKLFKLSRGRYGLPLSSRPVVKSMMSNKNLRGKSCNSIVDCISWLEVFCAELTSRIQDLEQEYNKIVIPRTVSISLKTKSYEVYRKSGPVAYKGINFQSHELLKVGIKFVTDLDIKGKNKSYYPLTKLSMTITNFDIIDLQKTVVDMFGNQVHTFKSSAGKEDEEKTTSSKADEKTPKLECCKYQVTFTDQKALQEHADYHLALKLSEGLNGAEESSKNLSFGEKRLLFSRKRPNSQHTATPQKKQVTSSKNILSFFTRKK
modifications: left off: GST, N-terminal, state not stated
notes: Saccharomyces cerevisiae DNA polymerase eta
In turn, B5 came in with a Kd in the data set with ScPCNA [7] (20 mM HEPES pH 7.4, 150 mM NaCl, syringe ScPCNA 200 μM, cell 10 μM ScPolη or 20 μM ubz peptide, single-site model, repeated twice) of 15.1 µM. In the data set with ScPCNA [7] (pH 7.4, ScPCNA 200 μM in syringe), the Stoichiometry was found to be 0.31. In addition, in the data set with ScPCNA [7] (pH 7.4, ScPCNA, unit not given), the ΔG is on record as −6.58, the ΔH was −79.9 and the “−TΔS” value is reported as 73.3.

(Values after paper PMC8784325, “The ubiquitin-binding domain of DNA polymerase η directly binds to DNA clamp PCNA and regulates translesion DNA synthesis” (The Journal of Biological Chemistry, 2021).)
